4 molecules from publication PMC11711466, “Reconstitution of human DNA licensing and the structural and functional analysis of key intermediates” (Nature Communications, 2024) can be followed below.

In one experiment the target is T1, human ORC1 (human, UniProt Q13415 1-861).
T1 construct: human origin recognition complex subunit 1 (hORC1); Subunit of m1; also called hORC1; hORC1 N-tag; source: S. cerevisiae YC658, co-overexpressed with hORC2-5; in lysate (co-purification) and purified as hORC1-5 (StrepXT, heparin, glycerol gradient); not shown: Twin Strep-tag, N-terminal, kept
T1 sequence (looked up): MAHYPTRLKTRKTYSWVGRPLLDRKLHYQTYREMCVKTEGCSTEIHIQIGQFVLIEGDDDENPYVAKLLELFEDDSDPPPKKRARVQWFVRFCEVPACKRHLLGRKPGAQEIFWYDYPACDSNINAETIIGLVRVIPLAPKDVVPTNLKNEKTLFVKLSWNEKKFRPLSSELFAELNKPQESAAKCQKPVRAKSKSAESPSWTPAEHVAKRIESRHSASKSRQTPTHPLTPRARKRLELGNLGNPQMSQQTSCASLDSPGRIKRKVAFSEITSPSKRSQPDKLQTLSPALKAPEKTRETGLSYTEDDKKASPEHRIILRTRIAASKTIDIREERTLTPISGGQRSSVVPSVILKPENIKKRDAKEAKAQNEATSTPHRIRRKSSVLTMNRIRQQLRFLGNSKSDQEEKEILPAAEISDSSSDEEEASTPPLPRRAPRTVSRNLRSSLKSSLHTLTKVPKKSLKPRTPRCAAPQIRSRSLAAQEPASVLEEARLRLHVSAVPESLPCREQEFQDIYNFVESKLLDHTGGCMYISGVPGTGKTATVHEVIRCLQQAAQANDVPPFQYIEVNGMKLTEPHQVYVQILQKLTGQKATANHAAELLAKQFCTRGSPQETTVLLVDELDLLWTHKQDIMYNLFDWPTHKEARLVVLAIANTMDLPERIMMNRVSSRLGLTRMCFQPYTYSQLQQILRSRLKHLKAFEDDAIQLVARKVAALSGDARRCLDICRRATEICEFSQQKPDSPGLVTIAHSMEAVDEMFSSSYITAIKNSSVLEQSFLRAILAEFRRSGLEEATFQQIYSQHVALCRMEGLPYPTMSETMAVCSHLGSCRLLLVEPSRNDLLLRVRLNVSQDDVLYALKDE
Briefly: affinity co-purification; hORC1-5 co-overexpressed in G1-arrested budding yeast; StrepXT column on the N-terminal Strep tag of hORC1, then heparin column and glycerol gradient. Conditions: partners not purified.

In a further experiment the target is T2, human MCM3 (human, UniProt P25205 1-808).
T2 construct: Subunit of m6; also called hMCM3; source: HEK293-F, co-expressed hMCM2-7; in lysate (co-purification) and purified as hMCM2-7 (Ni-NTA, StrepTrapXT)
T2 sequence (looked up): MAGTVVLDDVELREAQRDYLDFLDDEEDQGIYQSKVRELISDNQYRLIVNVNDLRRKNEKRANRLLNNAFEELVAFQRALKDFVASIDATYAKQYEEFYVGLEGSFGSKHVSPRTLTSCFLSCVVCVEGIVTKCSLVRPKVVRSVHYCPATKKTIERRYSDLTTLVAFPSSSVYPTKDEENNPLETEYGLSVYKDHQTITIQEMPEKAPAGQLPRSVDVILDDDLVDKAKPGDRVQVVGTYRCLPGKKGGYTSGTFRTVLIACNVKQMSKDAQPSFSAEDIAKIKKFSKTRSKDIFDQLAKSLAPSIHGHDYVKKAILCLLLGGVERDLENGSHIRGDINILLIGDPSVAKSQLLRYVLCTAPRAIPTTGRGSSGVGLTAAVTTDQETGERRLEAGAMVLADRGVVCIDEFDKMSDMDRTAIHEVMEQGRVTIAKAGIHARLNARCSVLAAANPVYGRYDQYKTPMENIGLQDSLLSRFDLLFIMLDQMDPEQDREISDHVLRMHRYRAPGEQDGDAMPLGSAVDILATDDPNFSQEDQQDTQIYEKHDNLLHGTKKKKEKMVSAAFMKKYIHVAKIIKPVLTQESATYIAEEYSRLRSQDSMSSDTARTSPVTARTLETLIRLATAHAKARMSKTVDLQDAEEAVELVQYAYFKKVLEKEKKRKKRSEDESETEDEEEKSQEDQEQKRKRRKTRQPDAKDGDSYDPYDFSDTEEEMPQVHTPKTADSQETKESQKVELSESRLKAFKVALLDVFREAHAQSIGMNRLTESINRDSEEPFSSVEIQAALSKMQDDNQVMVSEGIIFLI
Briefly: cryo-EM structure; hOCCM from a low-salt washed pre-RC reaction with ATPγS, eluted from the DNA beads with DNaseI; 6.09 Å. Conditions: both partners purified.

The next experiment concerns the target T3, human MCM2 (human, UniProt P49736 1-904).
T3 construct: human MCM2 (hMCM2); Subunit of m6; also called hMCM2; source: HEK293-F, co-expressed hMCM2-7; in lysate (co-purification) and purified as hMCM2-7 (Ni-NTA, StrepTrapXT); not shown: twin Strep, N-terminal, kept
The description is as above. As to conditions: both partners purified.

The target of the next experiment is T4, human MCM6 (human, UniProt Q14566 1-821).
T4 construct: Subunit of m6; also called hMCM6; source: HEK293-F, co-expressed hMCM2-7; in lysate (co-purification) and purified as hMCM2-7 (Ni-NTA, StrepTrapXT)
T4 sequence (looked up): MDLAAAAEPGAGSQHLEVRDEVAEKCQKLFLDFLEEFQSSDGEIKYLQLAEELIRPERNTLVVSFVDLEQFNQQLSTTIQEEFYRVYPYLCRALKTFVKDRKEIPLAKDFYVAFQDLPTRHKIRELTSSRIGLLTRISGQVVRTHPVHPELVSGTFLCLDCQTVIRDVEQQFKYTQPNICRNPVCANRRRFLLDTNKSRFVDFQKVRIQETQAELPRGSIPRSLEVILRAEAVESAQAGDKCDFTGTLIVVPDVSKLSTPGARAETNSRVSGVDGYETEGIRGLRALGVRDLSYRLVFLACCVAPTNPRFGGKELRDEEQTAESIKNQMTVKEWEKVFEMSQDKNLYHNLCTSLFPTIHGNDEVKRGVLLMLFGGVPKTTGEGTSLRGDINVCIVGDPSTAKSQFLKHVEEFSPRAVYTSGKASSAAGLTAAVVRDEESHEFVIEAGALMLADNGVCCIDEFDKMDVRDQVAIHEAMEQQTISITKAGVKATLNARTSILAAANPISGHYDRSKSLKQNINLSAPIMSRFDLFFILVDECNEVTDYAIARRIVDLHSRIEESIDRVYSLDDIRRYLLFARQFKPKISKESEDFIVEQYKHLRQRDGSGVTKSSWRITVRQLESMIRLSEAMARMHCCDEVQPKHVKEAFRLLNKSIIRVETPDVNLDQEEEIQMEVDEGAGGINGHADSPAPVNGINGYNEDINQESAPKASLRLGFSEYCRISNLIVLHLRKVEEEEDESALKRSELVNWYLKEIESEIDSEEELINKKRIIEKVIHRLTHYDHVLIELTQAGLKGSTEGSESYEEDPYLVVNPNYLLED
The experiment is described as above. Conditions: both partners purified.

T3 sequence (P49736 whole entry): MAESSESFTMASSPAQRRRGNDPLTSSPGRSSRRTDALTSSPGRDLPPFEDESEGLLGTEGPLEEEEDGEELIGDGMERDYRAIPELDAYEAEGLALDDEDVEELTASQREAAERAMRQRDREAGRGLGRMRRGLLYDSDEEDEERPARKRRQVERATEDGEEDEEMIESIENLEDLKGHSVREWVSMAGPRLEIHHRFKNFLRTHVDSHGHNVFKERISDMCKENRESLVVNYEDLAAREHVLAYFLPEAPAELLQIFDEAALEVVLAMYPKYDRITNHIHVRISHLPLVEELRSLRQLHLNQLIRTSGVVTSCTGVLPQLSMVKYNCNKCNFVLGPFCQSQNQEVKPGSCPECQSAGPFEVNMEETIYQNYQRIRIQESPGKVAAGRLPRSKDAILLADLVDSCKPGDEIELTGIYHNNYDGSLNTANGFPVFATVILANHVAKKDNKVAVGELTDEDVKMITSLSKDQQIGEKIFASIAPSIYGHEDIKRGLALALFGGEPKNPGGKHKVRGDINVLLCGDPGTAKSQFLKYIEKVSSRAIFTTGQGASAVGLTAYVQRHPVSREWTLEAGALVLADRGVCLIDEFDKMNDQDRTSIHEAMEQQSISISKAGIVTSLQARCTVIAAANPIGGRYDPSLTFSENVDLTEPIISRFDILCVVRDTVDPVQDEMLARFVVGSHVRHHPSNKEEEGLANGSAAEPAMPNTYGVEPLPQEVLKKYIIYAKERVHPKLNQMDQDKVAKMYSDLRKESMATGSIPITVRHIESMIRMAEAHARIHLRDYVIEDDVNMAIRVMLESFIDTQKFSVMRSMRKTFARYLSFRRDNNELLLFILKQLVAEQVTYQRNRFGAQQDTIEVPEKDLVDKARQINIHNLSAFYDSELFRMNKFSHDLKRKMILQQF

B1: human ORC2 (natural protein, UniProt Q13416 1-577, looked up)
chain: MSKPELKEDKMLEVHFVGDDDVLNHILDREGGAKLKKERAQLLVNPKKIIKKPEYDLEEDDQEVLKDQNYVEIMGRDVQESLKNGSATGGGNKVYSFQNRKHSEKMAKLASELAKTPQKSVSFSLKNDPEITINVPQSSKGHSASDKVQPKNNDKSEFLSTAPRSLRKRLIVPRSHSDSESEYSASNSEDDEGVAQEHEEDTNAVIFSQKIQAQNRVVSAPVGKETPSKRMKRDKTSDLVEEYFEAHSSSKVLTSDRTLQKLKRAKLDQQTLRNLLSKVSPSFSAELKQLNQQYEKLFHKWMLQLHLGFNIVLYGLGSKRDLLERFRTTMLQDSIHVVINGFFPGISVKSVLNSITEEVLDHMGTFRSILDQLDWIVNKFKEDSSLELFLLIHNLDSQMLRGEKSQQIIGQLSSLHNIYLIASIDHLNAPLMWDHAKQSLFNWLWYETTTYSPYTEETSYENSLLVKQSGSLPLSSLTHVLRSLTPNARGIFRLLIKYQLDNQDNPSYIGLSFQDFYQQCREAFLVNSDLTLRAQLTEFRDHKLIRTKKGTDGVEYLLIPVDNGTLTDFLEKEEEEA
notes: human origin recognition complex subunit 2 (hORC2); Subunit of m1; also called hORC2; source: S. cerevisiae YC658, co-overexpressed with the other hORC1-5 subunits; in lysate (co-purification) and purified as hORC1-5
Regarding B1, the binding result with human ORC1 and in the experiment with human MCM3 was “binds” each time.

B2: human ORC3 (natural protein, UniProt Q9UBD5 1-711, looked up)
chain: MATSSMSKGCFVFKPNSKKRKISLPIEDYFNKGKNEPEDSKLRFETYQLIWQQMKSENERLQEELNKNLFDNLIEFLQKSHSGFQKNSRDLGGQIKLREIPTAALVLGVNVTDHDLTFGSLTEALQNNVTPYVVSLQAKDCPDMKHFLQKLISQLMDCCVDIKSKEEESVHVTQRKTHYSMDSLSSWYMTVTQKTDPKMLSKKRTTSSQWQSPPVVVILKDMESFATKVLQDFIIISSQHLHEFPLILIFGIATSPIIIHRLLPHAVSSLLCIELFQSLSCKEHLTTVLDKLLLTTQFPFKINEKVLQVLTNIFLYHDFSVQNFIKGLQLSLLEHFYSQPLSVLCCNLPEAKRRINFLSNNQCENIRRLPSFRRYVEKQASEKQVALLTNERYLKEETQLLLENLHVYHMNYFLVLRCLHKFTSSLPKYPLGRQIRELYCTCLEKNIWDSEEYASVLQLLRMLAKDELMTILEKCFKVFKSYCENHLGSTAKRIEEFLAQFQSLDETKEEEDASGSQPKGLQKTDLYHLQKSLLEMKELRRSKKQTKFEVLRENVVNFIDCLVREYLLPPETQPLHEVVYFSAAHALREHLNAAPRIALHTALNNPYYYLKNEALKSEEGCIPNIAPDICIAYKLHLECSRLINLVDWSEAFATVVTAAEKMDANSATSEEMNEIIHARFIRAVSELELLGFIKPTKQKTDHVARLTWGGC
notes: human origin recognition complex subunit 3 (hORC3); Subunit of m1; also called hORC3; source: S. cerevisiae YC658, co-overexpressed with the other hORC1-5 subunits; in lysate (co-purification) and purified as hORC1-5
Regarding B2, the binding result with human ORC1 and in the experiment with human MCM2 was “binds” in each case.

B3: human ORC4 (natural protein, UniProt O43929 1-436, looked up)
chain: MSSRKSKSNSLIHTECLSQVQRILRERFCRQSPHSNLFGVQVQYKHLSELLKRTALHGESNSVLIIGPRGSGKTMLINHALKELMEIEEVSENVLQVHLNGLLQINDKIALKEITRQLNLENVVGDKVFGSFAENLSFLLEALKKGDRTSSCPVIFILDEFDLFAHHKNQTLLYNLFDISQSAQTPIAVIGLTCRLDILELLEKRVKSRFSHRQIHLMNSFGFPQYVKIFKEQLSLPAEFPDKVFAEKWNENVQYLSEDRSVQEVLQKHFNISKNLRSLHMLLMLALNRVTASHPFMTAVDLMEASQLCSMDSKANIVHGLSVLEICLIIAMKHLNDIYEEEPFNFQMVYNEFQKFVQRKAHSVYNFEKPVVMKAFEHLQQLELIKPMERTSGNSQREYQLMKLLLDNTQIMNALQKYPNCPTDVRQWATSSLSWL
notes: human origin recognition complex subunit 4 (hORC4); Subunit of m1; also called hORC4; source: S. cerevisiae YC658, co-overexpressed with the other hORC1-5 subunits; in lysate (co-purification) and purified as hORC1-5
On to B3, for which the binding result in the experiment with human ORC1 and in the experiment with human MCM6 was “binds” in each case.

B4: human ORC5 (natural protein, UniProt O43913 1-435, looked up)
chain: MPHLENVVLCRESQVSILQSLFGERHHFSFPSIFIYGHTASGKTYVTQTLLKTLELPHVFVNCVECFTLRLLLEQILNKLNHLSSSEDGCSTEITCETFNDFVRLFKQVTTAENLKDQTVYIVLDKAEYLRDMEANLLPGFLRLQELADRNVTVLFLSEIVWEKFRPNTGCFEPFVLYFPDYSIGNLQKILSHDHPPEYSADFYAAYINILLGVFYTVCRDLKELRHLAVLNFPKYCEPVVKGEASERDTRKLWRNIEPHLKKAMQTVYLREISSSQWEKLQKDDTDPGQLKGLSAHTHVELPYYSKFILIAAYLASYNPARTDKRFFLKHHGKIKKTNFLKKHEKTSNHLLGPKPFPLDRLLAILYSIVDSRVAPTANIFSQITSLVTLQLLTLVGHDDQLDGPKYKCTVSLDFIRAIARTVNFDIIKYLYDFL
notes: human origin recognition complex subunit 5 (hORC5); Subunit of m1; also called hORC5; source: S. cerevisiae YC658, co-overexpressed with the other hORC1-5 subunits; in lysate (co-purification) and purified as hORC1-5
Consider B4, for which the binding result in the experiment with human ORC1 and in the experiment with human MCM6 was “binds” each time.
